Experimental data as given in patent publication US20200138716A1, “COMPOSITIONS AND METHODS FOR INDUCING NANOPARTICLE-MEDIATED MICROVASCULAR EMBOLIZATION OF TUMORS” (Poseida Therapeutics, Inc., priority 2014, published 2020).
Where two headings read alike, the source gives them in different places.

How the values were obtained:
[1] = background values; cited from earlier work
[2] = CuFL1A fluorescence NO sensor assay in solution; format: biochemical; details: for CuFL1A fluorescence on addition of DEANO: DEANO added to the solution
Experimental: In various studies to test these potential mechanisms, PEM may be incubated with a NO probe. […] When non-emissive CuFL1A reacts with NO, Cu(II) is reduced to Cu(I), among other changes, to produce fluorescent FL1A-NO. In this manner, CuFL1A may be used as an NO sensor activated by fluorescence to assess the relative NO levels in solution. In various studies, cultured umbilical vein endothelial cells may be incubated with CuFL1A and either PEM or a control in order to assess changes in NO levels in the extracellular environment. In various studies, luminal chemiluminescence due to the presence of reactive oxygen species may be used to assess the biological consequences of PEM-bound NO promotion of neutrophil activation. The FL1A ligands may be dissolved in spectroscopic grade DMSO to achieve a final concentration of the stock solution of around […]. To determine the exact concentration, the stock solution may be diluted in pH 7 aqueous buffer and the absorbance of the bands at 504 and 499 nm may be measured with E=4.6×104 M-1 cm-1. The absorbance value and dilution factor may be recorded and the exact concentration of the ligand in the stock solution may be calculated. The DMSO stock solution of the metal-free ligand may be aliquoted in 50 μL portions and stored at -80° C. The aliquots may be thawed and the absorbance of the band at 504 or 499 nm may be checked before use. […] The copper complex may be prepared fresh, immediately before cell incubation, using one of the frozen aliquots of the ligand stock solution. […] The unused portion of the solution may be discarded by the end of the day. In an example study, half of the free MetMb and […] suspensions were incubated with sodium sulfate to reduce the myoglobin back to its oxyMb form. The free oxyMb and oxyPEM suspensions were then dialyzed for 4h to remove salt, and the rest of the original metMb and […] suspensions were used as received. […] A 2× concentrated stock solution of metMb (50 mg/mL in PBS) and oxyMb (50 mg/mL in PBS) was prepared. The final concentrations of empty polymersomes, […] and oxyPEM were determined by UV-Vis spectrometry and ICP-OES. The final volume in each well was 200 μL, and therefore 100 μL of each solution was added per well, thus diluting these original stock solutions by half. Fluorescence was measured various time points for each condition.

[3] = tested on: human umbilical vein endothelial cells (HUVECs); assay: CuFL1A fluorescence, extracellular NO of cultured HUVECs; format: cell-based; details: for effect of further additions of DEANO on CuFL1A emission: DEANO added; for CuFL1A fluorescence compared to extracellular environment of HUVECs: no DEANO
Experimental: Cells may be incubated with 1 μM or less, relative to total concentration, of the NO sensor in PBS buffer or a growth medium for imaging. Concentration may be adjusted to reduce the fluorescent signal intensity to desired levels. Imaging of extra-cellular NO may be performed directly in the growth medium for imaging, and images may be taken as often as needed following cell stimulation.
In another example study, pooled 4× passaged human umbilical vein endothelial cells (HUVECs) were grown in Corning Costar 96 well white plates with clear bottoms in EBM-2 media to 80-90% confluence. Half of the free metMb and metPEM suspensions were incubated with sodium sulfate to reduce the myoglobin back to oxyMb form. The free oxyMb and oxyPEM suspensions were then dialyzed for four hours to remove salt. The rest of the original metMb and metPEM suspensions were used as received.
A 4× concentrated FL1A stock solution (10 μM in PBS+gluc+ca+mg/DMSO), a 4× concentrated DEANO stock solution (200 μM in 10 mM NaOH), and a 4× concentrated LNNA stock solution (400 μM in PBS+glu+ca+mg) were prepared so that 50 μL of each was added per well to a final and consistent volume of 200 μL per well.
A 2× concentrated stock solution of metMb (50 mg/mL in PBS+gluc+ca+mg) and 2× concentrated oxyMb (50 mg/mL in PBS+gluc+ca+mg) solution were also prepared. […] Fluorescence readings were obtained from each well following a set 30-minute incubation period with each of the experimental groups.

[4] = Oxygen equilibrium binding curves (Hemox Analyzer, Hill model); details: 37° C.; partial pressure of O2 at 50% saturation
Experimental: Oxygen equilibrium binding curves of PEM and free Mb dispersions may be measured using a Hemox™ Analyzer at physiological temperature (37° C.). In brief, samples may be allowed to saturate to a pO2 of 147 mm Hg using compressed air and then deoxygenated using a compressed nitrogen stream. UV-Vis absorbance measurements of oxygenated and deoxygenated samples may be recorded as a function of pO2 via dual wavelength spectroscopy. Oxygen-PEM/myoglobin equilibrium curves may be fit to a four-parameter (A0, A∞, P50, n) Hill model:
in which A0 and A∞ represent the absorbance at 0 mm Hg and at full O2 saturation, respectively. The pO2 represents the partial pressure of O2, and P50 represents the partial pressure of O2 where PEM/Mb is 50% saturated with oxygen. Lastly, ‘n’ represents the cooperativity coefficient of PEM/Mb. […] The lower O2 affinity (higher P50) of PEM than free myoglobin may be attributed to the shielding effect of the polymersome membrane, which was further found to delay the kinetics of O2 binding to PEM.

HUVECs = assay: Luminol chemiluminescence (reactive oxygen species) with HUVECs alone; format: cell-based, human; details: HUVECs without neutrophils, 30 minutes
Experimental: (§1) In another example study, similar to the previous study, pooled 4× passaged human umbilical vein endothelial cells (HUVECs) were grown in Corning Costar 96 well white plate with clear bottoms in EBM-2 media to 80-90% confluence. Half of the free metMb and […] suspensions were incubated with sodium sulfate to reduce the myoglobin back to oxyMb form. The free oxyMb and oxyPEM suspensions were then dialyzed for four hours to remove salt. The rest of the original metMb and […] suspensions were used as received. […] A 2× concentrated stock solution of metMb (50 mg/mL in PBS+gluc+ca+mg) and 2× concentrated stock of oxyMb (50 mg/mL in PBS+gluc+ca+mag) were prepared. The final concentrations of empty polymersome, […], and oxyPEM were determined by UV-Vis spectrometry and ICP-OES. […] Further, 600 μM of a luminol solution in media containing 18.75 μ/mL horseradish peroxidase (HRP) was prepared, with final concentrations in assay wells of around 120 μM luminol and 3.75 μ/mL HRP. […] A luminometor was used to continuously measure instantaneous reactive oxygen species generation after addition of each treatment administered to the HUVECs with and without neutrophils (total assay time 30 minutes). At the end of the study, sample supernatant were aliquoted and the cells were fixed and frozen for future myeloperoxidase assays or MPO ELISAs to look at degranulation.

[5] = tested on: human neutrophils incubated with HUVECs; assay: Luminol chemiluminescence, neutrophil activation on HUVECs; format: cell-based; details: for generation of reactive oxygen species compared to luminol control: neutrophils with HUVECs, 30 minutes, maximal concentrations (25 mg/mL polymer or protein; metPEM 1.3 mg/mL metMb, 23.5 mg/mL polymer)
Experimental: as §1, with “received. Further, a ficoll-paque density gradient separation was used to purify fresh human neutrophils and re-suspend in media at a concentration of 6×10^6 neutrophils/mL. In the assay, […] aliquots were added per well, with a final volume of 200 μL per well, as in the study above.” for “received.”

[6] = no DEANO, higher concentrations (e.g. 25 mg/mL metMb)

In the case of hemoglobin A: Normal adult hemoglobin A, the P50 [1] is given as 26.5 mmHg.

For “hemoglobin: oxygen-transporting protein in human red blood cells”, the P50 [1] is listed as 25-50 mmHg and the “affinity for oxygen / oxygen tension of release” value [1] is listed as 20 to 50 mmHg.

With `CCN(CC)/[N+]([O-])=N/O.CCNCC` [DEANO, diethylamine NO, reference compound] the “CuFL1A fluorescence compared to its intensity in PBS” value ([2]; solution, no cells) was “around seven-fold” and the “increase in CuFL1A emission in extracellular environment of HUVECs” value ([3]; 30-minute incubation) was about 1.5 fold.

B1: free Mb: free (unencapsulated) myoglobin (protein, UniProt P68082 2-154, looked up)
Myoglobin: GLSDGEWQQVLNVWGKVEADIAGHGQEVLIRLFTGHPETLEKFDKFKHLKTEAEMKASEDLKKHGTVVLTALGGILKKKGHHEAELKPLAQSHATKHKIPIKYLEFISDAIIHVLHSKHPGDFGADAQGAMTKALELFRNDIAAKYKELGFQG
In the case of B1, the P50 [4] is listed as about 2 mm Hg, the P50 [1] is listed as 2.75 mmHg and the “affinity for oxygen / oxygen tension of release” value [1] is listed as 2 to 3 mmHg.

B2: oxyMb: oxygenated myoglobin, free protein (protein, UniProt P68082 2-154, looked up)
Myoglobin: B1 Myoglobin
modifications: oxygenated form
notes: oxygenated myoglobin, free protein
For B2, the “CuFL1A fluorescence on addition of DEANO” value [2] was “did not augment CuFL1A fluorescence”, the “CuFL1A fluorescence compared to its intensity in PBS” value [2, 6] was “markedly decreased to baseline values” and the “CuFL1A fluorescence compared to its intensity in PBS” value ([2]; no DEANO, low concentrations (metMb up to 5 mg/mL)) was “greater”. The “effect of further additions of DEANO on CuFL1A emission” value [3] was “not able to mitigate”, the “CuFL1A fluorescence compared to extracellular environment of HUVECs” value [3] was “diminished” and the “generation of reactive oxygen species (luminol chemiluminescence)” value (HUVECs) was “do not, in and of themselves, result in the generation of reactive oxygen species”. The “effect of DEANO addition on neutrophil activation” value ([5]; DEANO added) was “did not mitigate the levels of neutrophil activation” and the “generation of reactive oxygen species compared to luminol control” value [5] was “statistically significant increase”.

B3: metMb: metmyoglobin, free protein (protein, UniProt P68082 2-154, looked up)
Myoglobin: B1 Myoglobin
modifications: met (ferric) form
notes: metmyoglobin, free protein
With B3 the “CuFL1A fluorescence on addition of DEANO” value [2] was “the degree of amplification in CuFL1A emission was lower”, the “CuFL1A fluorescence compared to its intensity in PBS” value [2, 6] was “dramatically reduced” and the “effect of further additions of DEANO on CuFL1A emission” value [3] was “only able to partially mitigate”. For the same molecule, the “CuFL1A fluorescence compared to extracellular environment of HUVECs” value [3] was “diminished”, the “generation of reactive oxygen species (luminol chemiluminescence)” value (HUVECs) was “do not, in and of themselves, result in the generation of reactive oxygen species” and the “total oxidative burst (integrated luminol chemiluminescence), neutrophil activation” value ([5]; 30 minute incubation) was “did not have any effects”. The “generation of reactive oxygen species compared to luminol control” value [5] was “no appreciable generation of reactive oxygen species”.
